T1: human recombinant HMGB1 protein (Homo sapiens, UniProt P09429)
T1 construct: purchased Abcam
T1 sequence (P09429 1-215): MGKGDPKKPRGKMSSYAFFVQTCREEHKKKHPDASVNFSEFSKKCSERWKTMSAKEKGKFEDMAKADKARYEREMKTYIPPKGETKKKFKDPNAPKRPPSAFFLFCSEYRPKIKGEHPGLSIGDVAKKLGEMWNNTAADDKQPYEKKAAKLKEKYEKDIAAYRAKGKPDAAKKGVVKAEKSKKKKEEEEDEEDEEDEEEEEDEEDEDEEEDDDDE

B1: lactoferrin (protein, UniProt P02788 20-710, looked up)
Lactotransferrin: GRRRSVQWCAVSQPEATKCFQWQRNMRKVRGPPVSCIKRDSPIQCIQAIAENRADAVTLDGGFIYEAGLAPYKLRPVAAEVYGTERQPRTHYYAVAVVKKGGSFQLNELQGLKSCHTGLRRTAGWNVPIGTLRPFLNWTGPPEPIEAAVARFFSASCVPGADKGQFPNLCRLCAGTGENKCAFSSQEPYFSYSGAFKCLRDGAGDVAFIRESTVFEDLSDEAERDEYELLCPDNTRKPVDKFKDCHLARVPSHAVVARSVNGKEDAIWNLLRQAQEKFGKDKSPKFQLFGSPSGQKDLLFKDSAIGFSRVPPRIDSGLYLGSGYFTAIQNLRKSEEEVAARRARVVWCAVGEQELRKCNQWSGLSEGSVTCSSASTTEDCIALVLKGEADAMSLDGGYVYTAGKCGLVPVLAENYKSQQSSDPDPNCVDRPVEGYLAVAVVRRSDTSLTWNSVKGKKSCHTAVDRTAGWNIPMGLLFNQTGSCKFDEYFSQSCAPGSDPRSNLCALCIGDEQGENKCVPNSNERYYGYTGAFRCLAENAGDVAFVKDVTVLQNTDGNNNEAWAKDLKLADFALLCLDGKRKPVTEARSCHLAMAPNHAVVSRMDKVERLKQVLLHQQAKFGRNGSDCPDKFCLFQSETKNLLFNDNTECLARLHGKTTYEKYLGPQYVAGITNLKKCSTSPLLEACEFLRK
B2: Lf-GL (1:4): lactoferrin-glycyrrhizin conjugate, ratio 1:4 (conjugate, UniProt P24627 20-708, looked up)
Lactotransferrin: APRKNVRWCTISQPEWFKCRRWQWRMKKLGAPSITCVRRAFALECIRAIAEKKADAVTLDGGMVFEAGRDPYKLRPVAAEIYGTKESPQTHYYAVAVVKKGSNFQLDQLQGRKSCHTGLGRSAGWIIPMGILRPYLSWTESLEPLQGAVAKFFSASCVPCIDRQAYPNLCQLCKGEGENQCACSSREPYFGYSGAFKCLQDGAGDVAFVKETTVFENLPEKADRDQYELLCLNNSRAPVDAFKECHLAQVPSHAVVARSVDGKEDLIWKLLSKAQEKFGKNKSRSFQLFGSPPGQRDLLFKDSALGFLRIPSKVDSALYLGSRYLTTLKNLRETAEEVKARYTRVVWCAVGPEEQKKCQQWSQQSGQNVTCATASTTDDCIVLVLKGEADALNLDGGYIYTAGKCGLVPVLAENRKSSKHSSLDCVLRPTEGYLAVAVVKKANEGLTWNSLKDKKSCHTAVDRTAGWNIPMGLIVNQTGSCAFDEFFSQSCAPGADPKSRLCALCAGDDQGLDKCVPNSKEKYYGYTGAFRCLAEDVGDVAFVKNDTVWENTNGESTADWAKNLNREDFRLLCLDGTRKPVTEAQSCHLAVAPNHAVVSRSDRAAHVKQVLLHQQALFGKNGKNCPDKFCLFKSETKNLLFNDNTECLAKLGGRPTYEEYLGTEYVTAIANLKKCSTSPLLEACAFLTR
modifications: glycyrrhizin conjugate 1:4
B3: Lf-GL (1:15): lactoferrin-glycyrrhizin conjugate, ratio 1:15 (conjugate, UniProt P24627 20-708, looked up)
Lactotransferrin: B2 Lactotransferrin
modifications: glycyrrhizin conjugate 1:15

Columns and labels:
[1] = system: orthotopic GBM (U87MG) mice model; test: TUNEL assay of GBM tissue; type: in vivo, Balb/c nude mice; conditions: daily i.v., 14 days (control 28.5 ± 4.8)
Excerpt: (§1) After two weeks, mice were sacrificed, and the brains were harvested and fixed with paraformaldehyde (4%). Then, tissue processing was automatically conducted using a Leica TP1020 semi-enclosed Benchtop Tissue Processor (Leica Biosystems, Wetzlar, Hesse, Germany), followed by embedding in paraffin blocks. Paraffin blocks were sliced into 5 μm thick slices using a Leica RM2145 Microtome (Leica Biosystems). Nissl staining was used to stain brain tissue slides with pre-warmed 0.1% Cresyl Violet Stain Solution (Abcam). TUNEL assays were conducted following the manufacturer’s instructions. For immunofluorescence staining; anti-HMGB1 antibody (Abcam), anti-Ki67 antibody (Abcam), anti-CD31 antibody (Abcam), and anti-VEGF antibody (Abcam) were used as primary antibodies, and goat anti-rabbit IgG-H&L Alexa Fluor 488 and goat anti-rabbit IgG H&L Alexa Fluor 647 were used as secondary antibodies, followed by DAPI mounting.

[2] = system: HUVEC; test: HUVEC co-cultured with U87MG: CCK-8 at basal chamber; type: cell-based, human; conditions: HUVEC/U87MG Transwell co-culture, 100 μM GL equivalent, 24 h
Protocol: (§2) To evaluate the inhibitory effect of Lf-GL on neovascularization in the tumor microenvironment in vitro, U87MG cells were seeded in the Transwell® insert chambers that were 6.5 mm in diameter and had 0.4 μm pore sizes (seeding density: 2.5 × 10^4 cells per well, Corning). HUVECs were seeded in the Transwell basal chamber (seeding density: 5.0 × 10^4 cells per well). GL, Lf, or Lf-GL (100 × 10^–6 M of GL equivalent concentration) were added to the insert chamber, and cells were incubated for 24 h. CCK-8 assay and HMGB1 ELISA were conducted at the basal chamber.

[3] = molecular target: T1, human recombinant HMGB1 protein; test: SPR binding affinity against HMGB1; conditions: SPR, HMGB1 immobilized; for Ka, association rate constant / Kd, dissociation rate constant: PBS pH 7.4, room temperature
Protocol: To confirm the binding affinity of Lf-GL to HMGB1, Surface Plasmon Resonance (SPR) was conducted at WoojungBSC (Korea). The Reichert SR7500DC system (Reichert technologies, NA, USA) and Scrubber2 software (Biologic software, FRA) were used, and a CMDH chip (Cat #: 13,206,066, Reichert technologies) was used for immobilization of the human recombinant HMGB1 protein (Abcam). HMGB1 protein was used as a ligand, and the analytes were HMGB1 antibody (Abcam), GL, Lf and Lf-GL conjugate. The immobilization buffer was S.A. (10 × 10^–3 M, pH 4.5), and the running buffer was PBS (pH 7.4). The flow rate of the analyte was 30 μL min^−1. The association and dissociation time were 3 min each, and measurements were conducted at room temperature. Results are expressed in response units (RU) over time.
Fig. S5. Binding affinity against HMGB1. Surface Plasmon Resonance (SPR) was conducted at WoojungBSC (Korea). The Reichert SR7500DC system (Reichert technologies, NA, USA) and Scrubber2 software(Biologic software, FRA) were used and the CMDH chip (Cat #: 13206066, Reichert technologies) was used for immobilization of the human recombinant HMGB1 protein (Abcam). HMGB1 protein was used as ligand and analytes were HMGB1 antibody (Abcam), GL, Lf and Lf-GL conjugate. Immobilization buffer was 10 mM S.A. (pH 4.5) and running buffer was 1× PBS. The flow rate of the analyte was 30 μL min^-1. The association and dissociation time were 3 min each and conducted at room temperature. Results are expressed in response units (RU) over time.

[4] = system: orthotopic GBM (U87MG) mice model; test: Survival in orthotopic GBM mouse model; type: in vivo, Balb/c nude mice; conditions: i.v. GL equivalent 50 mg kg^−1 (Lf 5 mg kg^−1)
Protocol: To establish the orthotopic GBM mice model, GBM cells (U87MG, inoculation density: 1.0 × 10^6 cells per 10 μL) were stereotactically injected into the right striatum of Balb/c nude mice. Then, mice were randomly divided into four groups (n = 5): control, GL, Lf, and Lf-GL treated group. […] After four weeks, mice were sacrificed, and organs were harvested and fixed with 4% paraformaldehyde for further analysis.

[5] = system: HMGB1; test: HUVEC co-cultured with U87MG: HMGB1 ELISA; type: cell-based, human; conditions: HUVEC/U87MG co-culture, 100 μM GL equivalent, 24 h (control 217.8 ± 5.9)
Protocol: as §2

[6] = system: U87MG human glioma cell line; test: Cell viability test (CCK-8) in U87MG; type: cell-based; conditions: 50 μM GL equivalent, after 48 h treatment
Protocol: Cell viability was determined using a cell counting kit-8 (CCK-8). U87MG and HUVECs (seeding density: 0.75 × 10^4 cells per well) in 96-well culture plates were treated with GL, Lf, or Lf-GL (25 to 200 × 10^–6 M of GL equivalent concentration) and were incubated for different periods of time (24, 48, and 72 h). After washing with PBS, they were treated with a cell culture medium containing a CCK-8 assay kit (Abbkine) and were incubated at 37 °C and 5% CO2 for 2 h. Then, absorbance was measured at 450 nm in a micro-plate reader (VLBL00D0, Thermo Fisher Scientific). Results were quantified using Sigma Plot (Systat Software, USA). To determine the effect of extracellular HMGB1 in GBM and endothelial cell proliferation, U87MG and HUVECs were seeded in 96-well culture plates (seeding density: 0.75 × 10^4 cells per well) and GL, Lf, or Lf-GL (50 × 10^–6 M GL equivalent concentration) were added to cells with or without HMGB1 protein (U87MG: 0.1 μg mL^−1, and HUVEC: 1 μg mL^−1). Cells were incubated for different periods of time (24, 48, and 72 h).

[7] = system: HMGB1; test: Immunofluorescence staining of HMGB1 in GBM tissue; type: in vivo, Balb/c nude mice; conditions: GBM mice, daily i.v. GL equivalent 50 mg kg^−1, 14 days (control 15.3 ± 1.7)
Excerpt: as §1

[8] = system: orthotopic GBM (U87MG) mice model; test: Nissl staining: GBM/normal brain ratio; type: in vivo, Balb/c nude mice; conditions: daily i.v. GL equivalent 50 mg kg^−1, 14 days (control 37.5 ± 2.3)
Excerpt: as §1

[9] = system: HMGB1; test: HMGB1 ELISA of U87MG culture medium; type: cell-based, human; conditions: 50 μM GL equivalent, 48 h (control 131.8 ± 11.4)
Protocol: U87MG cells were seeded in 100 mm-cell culture dishes (2.2 × 10^6 cells per dish) and treated with GL, Lf, or Lf-GL (50 × 10^–6 M GL equivalent concentration) for 48 h. After incubating, cells were collected using a cell scrapper and were centrifuged for 3 min at 150 × g. Supernatant was collected as cell culture medium, and pellets were washed with cold PBS twice and transferred into a microcentrifuge tube. Tubes were centrifuged, and then pellets were resuspended in 500 μL 1X hypotonic buffer and incubated on ice. Then, 25 μL of NP40 was added and the mixture was agitated using a vortex mixer at the highest setting. Homogenates were centrifuged for 10 min at 842 × g at 4℃. Supernatant was collected as the cytoplasmic fraction, and pellets were resuspended in cell extraction buffer (50 μL) and were incubated for 30 min on ice with vortexing at 10 min intervals. Then, homogenates were centrifuged for 30 min at 14,000 × g at 4℃. Supernatant was collected as the nuclear fraction. The amount of HMGB1 in the samples was measured using a HMGB1 ELISA kit (Abbkine), and absorbance was measured at 450 nm in a micro-plate reader. A DNA assay (Quant-iT™ dsDNA Assay Kit, Invitrogen) was also conducted to express HMGB1 concentrations in equivalent amounts of DNA.

[10] = system: CD31; test: Immunofluorescence staining of CD31 in GBM tissue; type: in vivo, Balb/c nude mice; conditions: GBM mice, daily i.v., 14 days (control MFI 14.7 ± 1.4)
Excerpt: as §1

[11] = system: U87MG spheroid; test: GBM spheroid growth inhibition; type: cell-based, human; conditions: GL equivalent 50 µM, day 6 (control 294%)
Protocol: Fig. S8. GBM spheroid growth inhibition of Lf-GL. To form U87MG spheroid, cells were seeded at density of 1X10^5 cells in concave mold (StemFIT 3D; MICROFIT, Korea). After spheroids were formed, they were transferred to 24-well plate coated with 2% agarose gel. The constructed spheroids were treated with conditioned medium at 2 days interval after a washing step with PBS. (a) Morphology of U87MG spheroid treated with Lf-GL of GL equivalent concentration of 50 µM on day 0, 2, 4 and 6, respectively. Scale bar: 200 µm (b) GBM spheroids time-related volume after treated with Lf-GL of GL equivalent concentration of 50 µM. Data were expressed as mean ± S.E.M (n=9). **P <0.01 versus Control.

Row | Molecule | TUNEL MFI [1] | Reduction of endothelial cell proliferation [2] | KD, equilibrium dissociation constant (KD = Kd Ka^−1) [3] | Ka, association rate constant [3] | Mice survived up to 28 days [4] | Additional days of survival versus PBS control ([4]; 28 days) | HMGB1 level in medium [5] | Number of cells, % of the original count [6] | Mean fluorescence intensity (MFI) of HMGB1 [7] | GBM/normal brain ratio [8] | HMGB1 released into the medium of U87MG cells [9] | Decrease of MFI of CD31 [10] | Kd, dissociation rate constant [3] | Spheroid volume increase at day 6 compared to day 0 [11]
1 | B1 | 9.4 ± 1.6 | 8.2 ± 2.9% | 165 ± 3 nM | (8.1±0.1)·10^4 M^-1s^-1 | 25% | 5 days | 177.3 ± 3.6 ng/mL | 69.6 ± 5.7% | 7.9 ± 1.4 | 29.7 ± 3.3 | 114 ± 3.4 ng/mL | ~2 fold | – | –
2 | B2 | – | – | 595 ± 5 nM | (2.66±0.02)·10^3 M^-1s^-1 | – | – | – | – | – | – | – | – | 0.001584 ± 8e-06 s⁻¹ | 185%
3 | B3 | – | – | 32.3 ± 0.2 nM | (2.99±0.02)·10^4 M^-1s^-1 | – | – | – | – | – | – | – | – | (9.65±0.04)·10^-4 M^-1s^-1 | 179%
